Target: T1, CydE (GbsR-type regulator) (Alishewanella sp. WH16-1, UniProt A0ABQ3KUT0 1-187)
T1 sequence: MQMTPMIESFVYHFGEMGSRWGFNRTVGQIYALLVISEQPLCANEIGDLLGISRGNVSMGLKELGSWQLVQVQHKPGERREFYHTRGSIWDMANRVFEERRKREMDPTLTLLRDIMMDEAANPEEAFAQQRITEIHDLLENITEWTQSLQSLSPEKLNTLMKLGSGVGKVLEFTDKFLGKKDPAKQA
Assay: EMSA; ethidium bromide stain; EMSA: 20 uL with 2 uL 10x binding buffer (listed as 10 mM Tris pH 7.5, 10 mM EDTA, 1 mM KCl, 1 mM DTT, 50% glycerol, 0.1 mg/mL BSA), 37 C 30 min, 8% native PAGE in 0.5x TGE pH 8.0; footprinting: same mix, DNase I 10 min at room temperature
Conditions: protein: recombinant; tags: His6 (pET28a); chain copies: 2; (synthesized)

B1: CydE binding site 2 (dsDNA)
DNA 1: GGGATGCGCATATGCAAAT
DNA 2: ATTTGCATATGCGCATCCC
binding result: binds

B2: CydE binding site 1 (dsDNA)
DNA 1: TATTTCAGAAATTTCTGAAAGTTCA
DNA 2: TGAACTTTCAGAAATTTCTGAAATA
binding result: binds
